Data as given in paper PMC10393194.

Biological target: THO complex (endogenous, purified via Sub2 and Hpr1-TS) (S. cerevisiae | S. cerevisiae (endogenous in yeast)) (UniProt P17629)
Assay: cryo-EM structure; single-particle cryo-EM of the benzonase-treated native eluate on 2-nm carbon-supported grids; Glacios 200 kV; heterogeneous and nonuniform refinement without imposed symmetry

stoichiometry N: 2
Substance: THO complex (endogenous, purified via Sub2 and Hpr1-TS) (from UniProt P17629 1-752; P53552 1-1597)
